Data on three molecules can be found in US20140178389A1 (AbbVie / Abbott, published 2014).

The target in experiment [1] is T1, recombinant human IL-1α (human, UniProt P01583 113-271).
T1 sequence: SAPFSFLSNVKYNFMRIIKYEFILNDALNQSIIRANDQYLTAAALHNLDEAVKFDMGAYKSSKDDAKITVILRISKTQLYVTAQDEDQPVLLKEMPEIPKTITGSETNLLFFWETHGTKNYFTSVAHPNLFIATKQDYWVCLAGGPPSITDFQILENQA
Kind of experiment: cell-based or functional assay.

For experiment [2], the target named is T2, native human IL-1α present in crude supernatants (human, UniProt P01583 113-271, limits assumed).
T2 sequence (looked up): T1 sequence
Kind of experiment: cell-based or functional assay.

Experiment [3] concerns the target T3, recombinant human IL-1β (human, UniProt P01584 117-269). Kind of experiment: cell-based or functional assay.
Experiment [4] concerns the target T4, purified native human IL-1β (human, UniProt P01584 117-269). Kind of experiment: cell-based or functional assay.
Experiment [5] concerns the target T5, recombinant cynomolgus IL-1β (cynomolgus, UniProt P79182 117-268).
T5 sequence (looked up): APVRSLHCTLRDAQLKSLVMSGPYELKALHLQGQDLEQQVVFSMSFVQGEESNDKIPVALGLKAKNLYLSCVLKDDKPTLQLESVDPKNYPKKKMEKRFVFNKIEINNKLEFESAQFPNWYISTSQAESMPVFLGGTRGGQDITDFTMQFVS
Kind of experiment: cell-based or functional assay.

Experiment [6] addresses T6, recombinant cynomolgus IL-1α (cynomolgus, UniProt P79340 113-271).
T6 sequence (looked up): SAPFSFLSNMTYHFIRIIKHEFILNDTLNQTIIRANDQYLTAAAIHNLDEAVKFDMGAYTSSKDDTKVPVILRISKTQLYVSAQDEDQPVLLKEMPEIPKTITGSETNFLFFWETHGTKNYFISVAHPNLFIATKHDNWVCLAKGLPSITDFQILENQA
Kind of experiment: cell-based or functional assay.

For experiment [7], the target named is T1, recombinant human IL-1α. Kind of experiment: SPR (Biacore), Ig captured via goat anti-human IgG Fc, antigen in solution. As for the experimental part:
(§1) Goat IgGs specific to human IgG Fc were covalently linked to the carboxy methyl dextran matrix on the CMS biosensor chip via free amine groups using an amine coupling kit and the immobilization wizard option in the Biacore instruments controlling software. Specifically, carboxyl groups of the dextran matrix on the chip were activated with NHS and EDC. Goat anti-human IgG Fc antibodies (25 μg/mL), diluted in 10 mM sodium acetate, pH 4.5, were injected across the activated surface. Once the level of binding response reached the desired value, unreacted groups were deactivated by injection of 1M ethanolamine. For binding of IL-1α & IL-1β to captured Ig, a 1 μg/mL concentration of Ig in HBS-EP+ was injected over the goat anti-human IgG Fc surface at a flow rate of 10 μL/min for 1 minute. The net difference in the baseline signal and the signal after the completion of the Ig injection was taken to represent the amount of bound Ig.
A general note: SPR reads the build-up and loss of mass on a sensor chip optically.

Experiment [8] deals with T3, recombinant human IL-1β. The description is as above. The procedure: as §1
The target of experiment [9] is T5, recombinant cynomolgus IL-1β. The description is as above. As for the experimental part: as §1
In experiment [10] the target is T6, recombinant cynomolgus IL-1α. The experiment is described as above. The procedure:
as §1

Experiment [11] deals with T1, recombinant human IL-1α. Kind of experiment: SPR (BIAcore), DVD-Ig captured via goat anti-human IgG Fc. The procedure: as §1
(§2) The potency of the 5 DVD-Igs containing affinity matured h1B12.1 domains to recombinant and native IL-1 antigens was determined using the MRC-5 bioassay as shown in Table 24. The binding kinetics of the DVD-Igs to recombinant human and cynomolgus IL-1α and IL-1β were determined using surface plasmon resonance. In some cases, the off-rate could not be determined as they reached the limit of detection of the instrument.

Experiment [12] deals with T3, recombinant human IL-1β. The experiment is described as above. As for the experimental part:
as §1, §2

In experiment [13] the target is T5, recombinant cynomolgus IL-1β. The description is as above. As for the experimental part:
as §1, §2

For experiment [14], the target named is T6, recombinant cynomolgus IL-1α. The experiment is described as above. As for the experimental part: as §1, §2
The target of experiment [15] is T1, recombinant human IL-1α. Kind of experiment: cell-based or functional assay. This is another data set of the same source.
Experiment [16] addresses T2, native human IL-1α present in crude …. Kind of experiment: cell-based or functional assay. The source holds these as a separate data set.
Experiment [17] addresses T3, recombinant human IL-1β. Kind of experiment: cell-based or functional assay. The source holds these as a separate data set.
Experiment [18] concerns the target T4, purified native human IL-1β. Kind of experiment: cell-based or functional assay. The source holds these as a separate data set.
For experiment [19], the target named is T5, recombinant cynomolgus IL-1β. Kind of experiment: cell-based or functional assay. The source holds these as a separate data set.
In experiment [20] the target is T6, recombinant cynomolgus IL-1α. Kind of experiment: cell-based or functional assay. This is another data set of the same source.
The target in experiment [21] is T3, recombinant human IL-1β. Kind of experiment: SPR (BIAcore); KD calculated assuming an off-rate of 1x10^-6. The procedure:
as §1, §2

For experiment [22], the target named is T3, recombinant human IL-1β. Kind of experiment: SPR (BIAcore); the off-rate reached the limit of detection of the instrument. As for the experimental part:
as §1, §2

Experiment [23] deals with T3, recombinant human IL-1β. Kind of experiment: SPR (Biacore), Expt 1. The procedure:
as §1

For experiment [24], the target named is T5, recombinant cynomolgus IL-1β. Kind of experiment: SPR (Biacore), Expt 1. The procedure:
as §1

Experiment [25] deals with T3, recombinant human IL-1β. Kind of experiment: SPR (Biacore), Expt 2. As for the experimental part: as §1
Experiment [26] deals with T5, recombinant cynomolgus IL-1β. Kind of experiment: SPR (Biacore), Expt 2. The procedure:
as §1

Experiment [27] has as its target T3, recombinant human IL-1β. Kind of experiment: SPR (Biacore), average of 2 experiments. As for the experimental part: as §1
The target in experiment [28] is T5, recombinant cynomolgus IL-1β. Kind of experiment: SPR (Biacore), average of 2 experiments. As for the experimental part:
as §1

B1: 1B12.1-SS-X3 DVD-Ig IgG1/k mut (234,235) (bispecific antibody)
heavy: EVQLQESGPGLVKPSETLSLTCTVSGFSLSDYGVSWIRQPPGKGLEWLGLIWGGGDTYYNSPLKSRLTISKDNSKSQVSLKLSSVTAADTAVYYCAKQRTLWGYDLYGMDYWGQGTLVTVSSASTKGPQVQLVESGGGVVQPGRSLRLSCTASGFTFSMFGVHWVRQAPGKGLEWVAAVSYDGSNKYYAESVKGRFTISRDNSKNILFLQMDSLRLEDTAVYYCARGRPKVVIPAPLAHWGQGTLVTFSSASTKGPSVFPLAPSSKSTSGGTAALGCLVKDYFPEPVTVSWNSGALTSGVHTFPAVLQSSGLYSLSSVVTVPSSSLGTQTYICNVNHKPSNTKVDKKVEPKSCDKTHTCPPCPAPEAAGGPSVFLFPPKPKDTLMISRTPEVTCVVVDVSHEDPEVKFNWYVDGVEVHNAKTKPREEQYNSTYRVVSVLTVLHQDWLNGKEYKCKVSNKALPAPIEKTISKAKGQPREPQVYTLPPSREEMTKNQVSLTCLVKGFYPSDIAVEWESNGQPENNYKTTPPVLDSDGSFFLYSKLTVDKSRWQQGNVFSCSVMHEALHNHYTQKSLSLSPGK
light: DTQVTQSPSSLSASVGDRVTITCITSTDIDVDMNWYQQKPGKPPKLLISQGNTLRPGVPSRFSSSGSGTDFTFTISSLQPEDFATYYCLQSDNLPLTFGQGTKLEIKRTVAAPDIQMTQSPSSVSASVGDRVTITCRASQGISSWLAWYQQKPGKAPKLLIYEASNLETGVPSRFSGSGSGSDFTLTISSLQPEDFATYYCQQTSSFLLSFGGGTKVEHKRTVAAPSVFIFPPSDEQLKSGTASVVCLLNNFYPREAKVQWKVDNALQSGNSQESVTEQDSKDSTYSLSSTLTLSKADYEKHKVYACEVTHQGLSSPVTKSFNRGEC
notes: also called PR-1308565
Regarding B1, the “Potency IC50 (pM), MRC-5 bioassay (IL-8 secretion)” value with recombinant human IL-1α [1] was found to be 27 pM; in experiment [2], 79 pM; in the experiment with recombinant human IL-1β [3], 26 pM; in [4] it was 156 pM; in experiment [5] it was 461 pM; in experiment [6], 2510 pM. Moreover, the Kd (usually the equilibrium constant for the complex coming apart) with recombinant human IL-1α [7] is 120 pM; with recombinant human IL-1β [8], under 820 pM; in experiment [9] it was 110 pM; in [10], 3500 pM. In addition, the koff (as a rule, a measure of how fast the partners let go of each other) was found to be 2.4e-05 s⁻¹ in the experiment with recombinant human IL-1α [7], 0.00082 s⁻¹ with recombinant human IL-1β [8], 0.0008 s⁻¹ in experiment [9] and 0.00026 s⁻¹ in [10]. Besides, the kon – broadly, the second-order rate constant of association – is 210000 M⁻¹ s⁻¹ with recombinant human IL-1α [7], over 1e+06 M⁻¹ s⁻¹ with recombinant human IL-1β [8], 7.3e+06 M⁻¹ s⁻¹ in experiment [9] and 74000 M⁻¹ s⁻¹ in experiment [10].

B2: DVD3-h1B12.34-SS-X3, human anti-IL-1α/β DVD IgG1/k mut (234,235) (bispecific antibody)
heavy: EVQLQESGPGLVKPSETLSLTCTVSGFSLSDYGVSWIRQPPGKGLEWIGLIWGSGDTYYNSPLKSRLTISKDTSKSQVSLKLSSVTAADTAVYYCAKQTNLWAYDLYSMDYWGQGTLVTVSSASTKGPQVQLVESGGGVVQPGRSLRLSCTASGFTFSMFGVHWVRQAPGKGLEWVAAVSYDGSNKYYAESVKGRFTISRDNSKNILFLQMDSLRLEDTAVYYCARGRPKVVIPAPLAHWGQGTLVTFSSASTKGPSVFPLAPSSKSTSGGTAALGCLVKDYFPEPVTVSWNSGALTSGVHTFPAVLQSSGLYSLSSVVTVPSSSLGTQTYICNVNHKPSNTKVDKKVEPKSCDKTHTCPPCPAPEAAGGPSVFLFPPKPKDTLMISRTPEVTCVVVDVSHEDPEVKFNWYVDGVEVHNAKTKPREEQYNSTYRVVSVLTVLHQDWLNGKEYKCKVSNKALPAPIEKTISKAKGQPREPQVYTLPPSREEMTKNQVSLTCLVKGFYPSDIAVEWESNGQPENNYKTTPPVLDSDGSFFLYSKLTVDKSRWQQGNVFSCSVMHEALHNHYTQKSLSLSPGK
light: DIQMTQSPSSLSASVGDRVTITCQASQDIDDDLNWYQQKPGKAPKLLISLASILRPGVPSRFSGSGSGTDFTFTISSLQPEDFATYYCLQSDSFPLTFGQGTKLEIKRTVAAPDIQMTQSPSSVSASVGDRVTITCRASQGISSWLAWYQQKPGKAPKLLIYEASNLETGVPSRFSGSGSGSDFTLTISSLQPEDFATYYCQQTSSFLLSFGGGTKVEHKRTVAAPSVFIFPPSDEQLKSGTASVVCLLNNFYPREAKVQWKVDNALQSGNSQESVTEQDSKDSTYSLSSTLTLSKADYEKHKVYACEVTHQGLSSPVTKSFNRGEC
notes: also called PR-1358318
As for B2, the Kd with recombinant human IL-1α [11] is 30 pM; in experiment [13], 0.67 pM; in experiment [14], 2300 pM; in the experiment with recombinant human IL-1β [21], under 0.026 pM. For the same molecule, the koff with recombinant human IL-1α [11] was 4.2e-06 s⁻¹; in experiment [13] it was 1.2e-05 s⁻¹; in experiment [14], 0.00024 s⁻¹; with recombinant human IL-1β [22], under 1e-06 s⁻¹. In addition, the kon with recombinant human IL-1α [11] is 140000 M⁻¹ s⁻¹; in the experiment with recombinant human IL-1β [12], 3.9e+07 M⁻¹ s⁻¹; in experiment [13], 1.8e+07 M⁻¹ s⁻¹; in experiment [14], 100000 M⁻¹ s⁻¹. The “Potency (IC50) pM, MRC-5 bioassay” value amounted to 41.3 pM with recombinant human IL-1α [15]; 50.4 pM in [16]; 42.2 pM in the experiment with recombinant human IL-1β [17]; 0.998 pM in experiment [18]; 2.13 pM in experiment [19]; 1900 pM in experiment [20].

B3: 1B12.9, human anti-IL-1β IgG1/k mut (234,235) (antibody, V domains shown)
VH: EVQLQESGPGLVKPSETLSLTCTVSGFSLSDYGVSWIRQPPGKGLEWLGLIWGGGDTYYNSPLKSRLTISKDNSKSQVSLKLSSVTAADTAVYYCAKQRTLWGYDLYGMDYWGQGTLVTVSS
VL: DTQMTQSPSSLSASVGDRVTITCITSTDIDVDMNWYQQKPGKPPKLLISQGNTLRPGVPSRFSSSGSGTDFTFTISSLQPEDFATYYCLQSDNLPLTFGQGTKLEIKR
notes: also called PR-1317335; mAb 1B12.9
Regarding B3, the “Potency IC50 (pM), MRC-5 bioassay (IL-8 secretion)” value in the experiment with recombinant human IL-1β [3] came out at 691 pM; in experiment [4], 214 pM; in [5] it was 352 pM. Also, the Kd in the experiment with recombinant human IL-1β [23] worked out at 140 pM; in experiment [24], 490 pM; in the experiment with recombinant human IL-1β [25] it was 130 pM; in experiment [26] it was 600 pM; with recombinant human IL-1β [27], 140 pM; in [28] it was 550 pM. Besides, the koff with recombinant human IL-1β [23] was found to be 0.00076 s⁻¹; in [24], 0.00098 s⁻¹; with recombinant human IL-1β [25], 0.00077 s⁻¹; in experiment [26] it was 0.00085 s⁻¹; in the experiment with recombinant human IL-1β [27] it was 0.00077 s⁻¹; in experiment [28], 0.00092 s⁻¹. Besides, the on-rate constant (kon) with recombinant human IL-1β [23] was 5.5e+06 M⁻¹ s⁻¹; in experiment [24], 2e+06 M⁻¹ s⁻¹; with recombinant human IL-1β [25] it was 5.8e+06 M⁻¹ s⁻¹; in [26], 1.4e+06 M⁻¹ s⁻¹; with recombinant human IL-1β [27] it was 5.7e+06 M⁻¹ s⁻¹; in [28], 1.7e+06 M⁻¹ s⁻¹.
